Measured values as given in the RNAGym collection of RNA variant scans (doi:10.7554/elife.80360).

B1: Hammerhead Ribozyme (parent)
chain: ACCGGAUGUGCUUUCCGGUCUGAUGAGUCCGUGAGGACGAAACAG

Variants of: B1
Experiment: self-cleavage, relative activity (ratio to wild type); higher = more cleavage; co-transcriptional

| Variant | self-cleavage |
| --- | --- |
| A6G C30G | 0.594 |
| A6G C30A | 0.48 |
| A6G C30U | 0.634 |
| A6C U12G | 0.991 |
| A6C U12A | 0.826 |
| A6C U12C | 0.899 |
| A6G C38G | 0.448 |
| A6G C38A | 0.454 |
| A6G C38U | 0.629 |
| A6G C15G | 0.54 |
| A6G C15U | 0.811 |
| A6G C15A | 0.707 |
| A6G G8U | 0.844 |
| A6G G8C | 0.708 |
| A6G G8A | 1.17 |
| A6U G10U | 0.747 |
| A6U G10C | 0.522 |
| A6U G10A | 0.75 |
| A6C G22U | 0.39 |
| A6C G22C | 0.296 |
| A6C G22A | 0.29 |
| U7A A23C | 0.434 |
| A6C G17A | 0.348 |
| A6C G17U | 0.37 |

| Variant | self-cleavage |
| --- | --- |
| A6C G17C | 0.269 |
| A6C G45C | 0.433 |
| A6C G45U | 0.44 |
| A6C G45A | 0.384 |
| A6G C43U | 0.321 |
| A6G C43G | 0.284 |
| A6G C43A | 0.217 |
| A6G A26U | 0.71 |
| A6G A26G | 0.303 |
| A6G A26C | 0.396 |
| A6G C20A | 0.4 |
| A6G C20U | 0.432 |
| A6G C20G | 0.236 |
| A6G A41C | 0.299 |
| A6G A41U | 0.273 |
| A6G A41G | 0.266 |
| A6C C20G | 0.335 |
| A6C C20U | 0.371 |
| A6C C20A | 0.291 |
| A6C U19G | 0.269 |
| A6C U19A | 0.265 |
| A6C U19C | 0.397 |
| A6U G39U | 0.364 |
| A6U G39A | 0.281 |

| Variant | self-cleavage |
| --- | --- |
| A6U G39C | 0.294 |
| A6G G31A | 0.853 |
| A6G G31U | 0.945 |
| A6G G31C | 0.979 |
| A6C U9A | 0.479 |
| A6C U9G | 0.578 |
| A6C U9C | 0.486 |
| A6U A40G | 0.317 |
| A6U A40U | 0.351 |
| A6U A40C | 0.268 |
| A6G G25C | 0.283 |
| A6G G25A | 0.263 |
| A6G G25U | 0.194 |
| A6G A23U | 0.274 |
| A6G A23G | 0.272 |
| A6G A23C | 0.277 |
| A6G U12A | 0.819 |
| A6G U12C | 0.802 |
| A6G U12G | 0.802 |
| A6U G18U | 0.344 |
| A6U G18A | 0.34 |
| A6U G18C | 0.395 |
| A6G C16G | 0.537 |
| A6G C16A | 0.825 |

| Variant | self-cleavage |
| --- | --- |
| A6G C16U | 0.762 |
| A6G G33C | 0.597 |
| A6G G33A | 0.844 |
| A6G G33U | 0.863 |
| A6U C11U | 0.607 |
| A6U C11A | 0.831 |
| A6U C11G | 0.827 |
| A6C G39U | 0.271 |
| A6C G39A | 0.311 |
| A6C G39C | 0.368 |
| A6U U9G | 0.641 |
| A6U U9C | 0.654 |
| A6U U9A | 0.617 |
| A6U A37U | 0.451 |
| A6U A37G | 0.529 |
| A6U A37C | 0.677 |
| A6G A44U | 0.483 |
| A6G A44G | 1.08 |
| A6G A44C | 0.523 |
| A6C G25C | 0.24 |
| A6C G25A | 0.286 |
| A6C G25U | 0.219 |
| A6G U14C | 0.704 |
| A6G U14G | 1.13 |

| Variant | self-cleavage |
| --- | --- |
| A6G U14A | 0.436 |
| A6U A44U | 0.36 |
| A6U A44C | 0.455 |
| A6U A44G | 1.12 |
| A6G G27U | 0.356 |
| A6G G27C | 0.45 |
| A6G G27A | 0.657 |
| A6C U28C | 0.604 |
| A6C U28A | 0.191 |
| A6C U28G | 0.354 |
| A6C G36C | 0.326 |
| A6C G36U | 0.34 |
| A6C G36A | 0.391 |
| A6U U28C | 0.638 |
| A6U U28G | 0.373 |
| A6U U28A | 0.377 |
| U7A | 1.28 |
| A6U G22C | 0.354 |
| A6U G22A | 0.289 |
| A6U G22U | 0.397 |
| A6U U12C | 0.716 |
| A6U U12G | 0.447 |
| A6U U12A | 0.538 |
| A6G G10U | 1.1 |

| Variant | self-cleavage |
| --- | --- |
| A6G G10C | 0.889 |
| A6G G10A | 0.989 |
| A6C C38U | 0.67 |
| A6C C38G | 0.427 |
| A6C C38A | 0.469 |
| A6C G27C | 0.478 |
| A6C G27A | 0.56 |
| A6C G27U | 0.38 |
| A6U G36C | 0.334 |
| A6U G36U | 0.391 |
| A6U G36A | 0.44 |
| A6G G36A | 0.624 |
| A6G G36C | 0.351 |
| A6G G36U | 0.314 |
| A6G C11U | 0.796 |
| A6G C11A | 0.965 |
| A6G C11G | 0.921 |
| A6C G33U | 0.579 |
| A6C G33C | 0.472 |
| A6C G33A | 0.689 |
| A6U U13C | 1.02 |
| A6U U13A | 0.747 |
| A6U U13G | 0.616 |
| A6U C15U | 0.708 |

| Variant | self-cleavage |
| --- | --- |
| A6U C15G | 0.527 |
| A6U C15A | 0.741 |
| A6U A41U | 0.282 |
| A6U A41C | 0.334 |
| A6U A41G | 0.289 |
| A6C G18A | 0.311 |
| A6C G18U | 0.428 |
| A6C G18C | 0.311 |
| A6G G22A | 0.239 |
| A6G G22C | 0.284 |
| A6G G22U | 0.28 |
| A6U U24A | 0.494 |
| A6U U24C | 0.573 |
| A6U U24G | 0.642 |
| A6G U24C | 0.944 |
| A6G U24G | 0.777 |
| A6G U24A | 0.597 |
| A6U G17C | 0.354 |
| A6U G17A | 0.401 |
| A6U G17U | 0.465 |
| A6U G31U | 0.889 |
| A6U G31A | 0.748 |
| A6U G31C | 0.704 |
